Results on one protein are retold here after publication PMC6136348, “In the quest for new targets for pathogen eradication: the adenylosuccinate synthetase from the bacterium Helicobacter pylori” (Journal of Enzyme Inhibition and Medicinal Chemistry, 2018).

Substrate in data set [1]: N[C@@H](CC(=O)O)C(=O)O
The experiment in a line: Michaelis-Menten kinetics of the purified enzyme (Km). In kind it is biochemical, Helicobacter pylori. The conditions noted are these: Mg2+.

Substrate in data set [2]: Nc1nc2c(ncn2[C@@H]2O[C@H](COP(=O)(O)OP(=O)(O)OP(=O)(O)O)[C@@H](O)[C@H]2O)c(=O)[nH]1
The description is as above. It counts as biochemical, Helicobacter pylori. The conditions noted are these: Mg2+.

B1: adenylosuccinate synthetase (AdSS) (Helicobacter pylori 26695) (protein)
chain: MADVVVGIQWGDEGKGKIVDRIAKDYDFVVRYQGGHNAGHTIVHKGVKHSLHLMPSGVLYPKCKNIISSAVVVSVKDLCEEISAFEDLENRLFVSDRAHVILPYHAKKDAFKEKSQNIGTTKKGIGPCYEDKMARSGIRMGDLLDDKILEEKLNAHFKAIEPFKKAYDLGENYEKDLMGYFKTYAPKICPFIKDTTSMLIEANQKGEKILLEGAQGTLLDIDLGTYPFVTSSNTTSASACVSTGLNPKAINEVIGITKAYSTRVGNGPFPSEDTTPMGDHLRTKGAEFGTTTKRPRRCGWLDLVALKYACALNGCTQLALMKLDVLDGIDAIKVCVAYERKGERLEIFPSDLKDCVPIYQTFKGWEKSVGVRKLDDLEPNVREYIRFIEKEVGVKIRLISTSPEREDTIFL
notes: recombinant protein expressed from pET21b-HPpurA
On to B1, for which, in data set [1], the Km is given as 125.4 ± 7.7 µM and the Vmax is 1.1 µmol/min/mg. For the same protein, in data set [2], the Km is on record as 8.7 ± 0.6 µM and the Vmax is 1.42 µmol/min/mg.

The term Km denotes the concentration of substrate that gives half-maximal velocity. In general, Vmax refers to the top rate of the reaction or transport when substrate is in excess.
